Data taken from PMC11645235 (Cell, 2024).
Values joined by “and” are separate entries in the source; they are usually repeats but may differ in a detail not shown here. Identical values can stand only once. One block for each compound: values may come before it.

What was measured:
[1] = target: CRISPR-associated adenosine deaminase 1 (Cad1); experiment: ITC; co-crystal structure at […] Å; format: binding, Bacteroidales bacterium
[2] = target: CRISPR-associated adenosine deaminase 1 (Cad1), hexa-histidyl tagged, full length (unknown Bacteroidales bacterium); experiment: SEC-MALS; Superdex 200 10/300 increase column in buffer A (25 mM Hepes pH 8, 200 mM NaCl, 2 mM beta-mercaptoethanol, 5% glycerol); full-length Cad1 at 20 uM, apo and also after incubation with cA4 or cA6, ATP and MgCl2 (1:5:50:50) at 37 C
[3] = target: Cad1 E408A mutant (unknown Bacteroidales bacterium); experiment: as above
[4] = target: Cad1 K342A mutant (unknown Bacteroidales bacterium); experiment: as above
[5] = target: Cad1 W349A mutant (unknown Bacteroidales bacterium); experiment: as above
[6] = target: hexa-histidyl-tagged CARF domain of Cad1 (residues 1-185) (unknown Bacteroidales bacterium); experiment: as above

Compound: Nc1ncnc2c1ncn2[C@@H]1O[C@@H]2COP(=O)(O)O[C@H]3[C@@H](O)[C@H](n4cnc5c(N)ncnc54)O[C@@H]3COP(=O)(O)O[C@H]3[C@@H](O)[C@H](n4cnc5c(N)ncnc54)O[C@@H]3COP(=O)(O)O[C@H]3[C@@H](O)[C@H](n4cnc5c(N)ncnc54)O[C@@H]3COP(=O)(O)O[C@H]3[C@@H](O)[C@H](n4cnc5c(N)ncnc54)O[C@@H]3COP(=O)(O)O[C@H]3[C@@H](O)[C@H](n4cnc5c(N)ncnc54)O[C@@H]3COP(=O)(O)O[C@H]2[C@H]1O [cA6]
- Kd [1]: 30 nM

Compound: CRISPR-associated adenosine deaminase 1 (Cad1), hexa-histidyl tagged, full length (enzyme)
- stoichiometry N [2]: 6 and 2

Compound: Cad1 K342A mutant (enzyme)
- stoichiometry N [4]: 6

Results, then the compound that gave them:

- stoichiometry N [3]: 6
Compound: Cad1 E408A mutant (enzyme)

- stoichiometry N [5]: 2
Compound: Cad1 W349A mutant (enzyme)

- stoichiometry N [6]: 2
Compound: hexa-histidyl-tagged CARF domain of Cad1 (residues 1-185) (domain or fragment)
